Data taken from US20030158133.

Experiments:
[1] = test system: Flag-tagged rtPDE3B-137 (full ORF) S421D
[2] = test system: Flag-tagged rtPDE3B-137 (full ORF) S421A
[3] = test system: Flag-tagged rtPDE3B containing its full ORF

PK-A (cAMP-dependent protein kinase)
stimulation of cGMP hydrolytic activity by PK-A (0.03 µM cGMP, with or without PK-A and ATP) [1]: caused a much greater stimulation of activity in S421D than in S421A or the wild-type rtPDE3B | stimulation of cGMP hydrolytic activity by PK-A (0.03 µM cGMP, with or without PK-A and ATP) [2]: caused a much greater stimulation of activity in S421D than in S421A or the wild-type rtPDE3B | stimulation of cGMP hydrolytic activity by PK-A (0.03 µM cGMP, with or without PK-A and ATP) [3]: caused a much greater stimulation of activity in S421D than in S421A or the wild-type rtPDE3B
